Earlier results as cited in PMC3222890.
Read-outs that look alike come from different tables or passages of the source.

Experiments:
[1] = biological target: GDI (Saccharomyces cerevisiae) (UniProt P39958)
[2] = biological target: GDI (Saccharomyces cerevisiae) (UniProt P39958); remark: listed apart in the source
[3] = biological target: GDI (Saccharomyces cerevisiae) (UniProt P39958); remark: listed apart in the source

Chain of UniProt P39958 (P39958 whole entry): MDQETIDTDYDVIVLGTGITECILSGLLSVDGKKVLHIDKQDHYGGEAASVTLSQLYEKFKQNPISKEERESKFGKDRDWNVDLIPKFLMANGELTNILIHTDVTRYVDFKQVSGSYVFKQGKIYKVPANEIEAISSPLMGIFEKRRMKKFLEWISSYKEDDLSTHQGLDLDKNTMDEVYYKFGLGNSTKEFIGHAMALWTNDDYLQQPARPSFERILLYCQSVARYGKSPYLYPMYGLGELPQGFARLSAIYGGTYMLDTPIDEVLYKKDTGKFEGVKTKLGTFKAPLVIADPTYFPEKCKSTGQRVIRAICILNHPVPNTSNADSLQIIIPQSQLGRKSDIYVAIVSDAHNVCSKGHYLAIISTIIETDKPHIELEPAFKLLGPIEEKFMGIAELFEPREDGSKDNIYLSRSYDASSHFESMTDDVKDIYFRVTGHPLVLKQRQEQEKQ

Substance: Ypt31 (from UniProt P38555)
- Kd [1]: 18.9 µM

Substance: Ypt32 (from UniProt P51996)
- Kd [2]: 1.5 µM

Substance: Sec4 (from UniProt P07560)
- Kd [3]: 0.33 µM
